In patent EP4703382A1 (Kanglitai Biomedical (Qingdao) Co., Ltd., dated 2026) one finds EC50, Kd and IC50 data, which are given here for 18 molecules.

By EC50 is commonly meant the concentration at which the effect is half-maximal. A high value points to weaker potency. Broadly, the Kd is the equilibrium constant for the complex coming apart. A higher Kd goes with lower affinity. One may read the IC50 as the midpoint of a concentration-inhibition curve.

Several values for one entry are separate records, joined by “and”; a condition that tells them apart may be missing. Equal values may be shown once. Read-outs that look alike come from different tables or passages of the source.

Assay [1] has as its target T1, human PDL1-Fc fusion protein (human).
T1 construct: also called human PDL1-Fc recombinant protein
Briefly: ELISA, human PDL1-Fc coated 200 ng/well, anti-His HRP. (An ELISA detects its analyte on a solid surface through an enzyme-linked reagent.)

Assay [2] deals with T1, human PDL1-Fc fusion protein. Described as above. The source holds these as a separate data set.
Assay [3] has the same target. Briefly: BLI (ForteBIO Octet QKe), PDL1-Fc loaded, analyte 100 nM.
Assay [4] has as its target T2, human PD-L1 expressed on Raji cells (human, UniProt Q9NZQ7 19-290).
T2 construct: whole, on cells; also called Raji-PDL1; PDL1 protein expressed on Raji cells
Briefly: flow cytometry competition on Raji-PDL1 cells, competitor PD1-Fc. Background: A flow cytometer gives signals particle by particle.

The target in assay [5] is T1, human PDL1-Fc fusion protein. The assay can be described thus: ELISA, human PDL1-Fc coated 200 ng/well, anti-His HRP. The source holds these as a separate data set.
Assay [6] has as its target T3, recombinant protein PD-L1-His (human, UniProt Q9NZQ7 19-238).
T3 construct: also called PD-L1-his fusion protein; human PDL1-his protein
Briefly: competitive ELISA, PDL1-his coated, competitor PD1-Fc 50 µg/mL.

The target of assay [7] is T1, human PDL1-Fc fusion protein. The assay can be described thus: ELISA, human PDL1-Fc coated 200 ng/well, anti-His HRP. This is another data set of the same source.

T3 sequence (Q9NZQ7 19-238 limits assumed): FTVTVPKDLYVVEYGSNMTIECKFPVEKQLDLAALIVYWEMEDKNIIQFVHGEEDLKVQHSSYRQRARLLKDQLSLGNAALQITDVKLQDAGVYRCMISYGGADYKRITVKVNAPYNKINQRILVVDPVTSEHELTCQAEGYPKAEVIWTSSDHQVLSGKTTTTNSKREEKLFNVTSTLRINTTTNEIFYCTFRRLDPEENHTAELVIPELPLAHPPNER
T1 sequence (chain, as listed by the source limits assumed): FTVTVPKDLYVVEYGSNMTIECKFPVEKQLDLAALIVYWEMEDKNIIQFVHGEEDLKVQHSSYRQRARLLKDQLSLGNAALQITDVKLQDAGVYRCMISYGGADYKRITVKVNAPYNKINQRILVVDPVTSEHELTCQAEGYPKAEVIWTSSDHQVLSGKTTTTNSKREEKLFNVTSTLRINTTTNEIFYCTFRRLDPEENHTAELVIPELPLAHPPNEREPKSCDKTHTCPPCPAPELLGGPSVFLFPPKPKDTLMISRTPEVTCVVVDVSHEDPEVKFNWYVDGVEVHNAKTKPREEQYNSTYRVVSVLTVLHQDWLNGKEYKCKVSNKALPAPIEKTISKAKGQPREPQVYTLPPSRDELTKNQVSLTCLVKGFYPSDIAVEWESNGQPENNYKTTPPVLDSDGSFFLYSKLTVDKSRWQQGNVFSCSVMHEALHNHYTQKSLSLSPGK
T2 sequence (Q9NZQ7 19-290): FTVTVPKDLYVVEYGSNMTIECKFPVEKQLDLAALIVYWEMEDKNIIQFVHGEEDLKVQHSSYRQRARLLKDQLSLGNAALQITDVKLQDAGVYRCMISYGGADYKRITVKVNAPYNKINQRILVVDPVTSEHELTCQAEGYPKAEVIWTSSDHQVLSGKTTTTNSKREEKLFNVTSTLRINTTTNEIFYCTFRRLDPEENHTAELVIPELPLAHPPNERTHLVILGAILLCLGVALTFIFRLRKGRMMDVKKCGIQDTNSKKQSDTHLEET

B1: Fusion 1 (other, murine)
chain 1: RVIPVSGPARCLSQSRNLLKTTDDMVKTAREKLKHYSCTAEDIDHEDITRDQTSTLKTCLPLELHKNESCLATRETSSTTRGSCLPPQKTSLMMTLCLGSIYEDLKMYQTEFQAINAALQNHNHQQIILDKGMLVAIDELMQSLNHNGETLRQKPPVGEADPYRVKMKLCILLHAFSTRVVTINRVMGYLSSAGGGGSGGGGSGGGGSQVQLQESGGGLVQPGGSLTLSCAASGFTVSNSAVSWARQAPGKGLEWVSLIDSNRNTVYAQSVRGRFTISRDNVKNTVYLQMNSLKPEDTAVYYCAKGIWGSTLTGQGTQVTVSSHHHHHHHH
chain 2: MWELEKDVYVVEVDWTPDAPGETVNLTCDTPEEDDITWTSDQRHGVIGSGKTLTITVKEFLDAGQYTCHKGGETLSHSHLLLHKKENGIWSTEILKNFKNKTFLKCEAPNYSGRFTCSWLVQRNMDLKFNIKSSSSSPDSRAVTCGMASLSAEKVTLDQRDYEKYSVSCQEDVTCPTAEETLPIELALEARQQNKYENYSTSFFIRDIIKPDPPKNLQMKPLKNSQVEVSWEYPDSWSTPHSYFSLKFFVRIQRKKEKMKETEEGCNQKGAFLVEKTSTEVQCKGGNVCVQAQDRYYNSSCSKWACVPCRVRS
notes: PDL1-1 nanobody fused with murine IL-12; two plasmids co-transfected 1:1; also called mP35-P1-8his + mP40
For B1, the concentration for a half-maximal effect (EC50) in assay [1] is 0.373 µg/mL and 4.93 nM.

B2: Fusion 3 (other, murine)
chain 1: QVQLQESGGGLVQPGGSLTLSCAASGFTVSNSAVSWARQAPGKGLEWVSLIDSNRNTVYAQSVRGRFTISRDNVKNTVYLQMNSLKPEDTAVYYCAKGIWGSTLTGQGTQVTVSSGGGGSGGGGSGGGGSRVIPVSGPARCLSQSRNLLKTTDDMVKTAREKLKHYSCTAEDIDHEDITRDQTSTLKTCLPLELHKNESCLATRETSSTTRGSCLPPQKTSLMMTLCLGSIYEDLKMYQTEFQAINAALQNHNHQQIILDKGMLVAIDELMQSLNHNGETLRQKPPVGEADPYRVKMKLCILLHAFSTRVVTINRVMGYLSSAHHHHHHHH
chain 2: MWELEKDVYVVEVDWTPDAPGETVNLTCDTPEEDDITWTSDQRHGVIGSGKTLTITVKEFLDAGQYTCHKGGETLSHSHLLLHKKENGIWSTEILKNFKNKTFLKCEAPNYSGRFTCSWLVQRNMDLKFNIKSSSSSPDSRAVTCGMASLSAEKVTLDQRDYEKYSVSCQEDVTCPTAEETLPIELALEARQQNKYENYSTSFFIRDIIKPDPPKNLQMKPLKNSQVEVSWEYPDSWSTPHSYFSLKFFVRIQRKKEKMKETEEGCNQKGAFLVEKTSTEVQCKGGNVCVQAQDRYYNSSCSKWACVPCRVRS
notes: PDL1-1 nanobody fused with murine IL-12; two plasmids co-transfected 1:1; also called P1-mP35-8his + mP40
Consider B2, for which the half-maximal effective concentration (EC50) in assay [1] was 0.251 µg/mL and 3.33 nM.

B3: PDL1-1v15 (VHH)
VHH: QVQLVESGGGLVKPGGSLRLSCAASGFTVSNSAVSWARQAPGKGLEWVSLIDSNRNTVYAQSVRGRFTISRDNAKNTVYLQMNSLRAEDTAVYYCAKGIWGSTLWGQGTTVTVSS
notes: Humanized PDL1-1, His-tagged
In assay [2], B3 had a half-maximal effective concentration (EC50) of 0.0432 µg/mL. The molecule also showed a Kd in assay [3] of 10.8 nM.

B4: PDL1-1v18 (VHH)
VHH: QVQLVESGGGLVKPGGSLRLSCAASGFTVSNSAVSWARQAPGKGLEWVSLIDSNRNTVYAQSVRGRFTISRDNAKNSVYLQMNSLRAEDTAVYYCAKGIWGSTLTGQGTTVTVSS
notes: Humanized PDL1-1, His-tagged
As to B4, the figures for the IC50 in assay [4] and in assay [6] were 0.694 µg/mL and 5.22 µg/mL, respectively. Also, the EC50 in assay [5] turned out to be 0.0182 µg/mL. In addition, the Kd in assay [3] was 4.16 nM.

B5: PDL1-1v3 (VHH)
VHH: QVQLLESGGGLVQPGGSLRLSCAASGFTVSNSAVSWARQAPGKGLEWVSLIDSNRNTVYAQSVRGRFTISRDNSKNTVYLQMNSLRAEDTAVYYCAKGIWGSTLWGQGTTVTVSS
notes: Humanized PDL1-1, His-tagged
In assay [7], B5 displayed an EC50 of 0.0336 µg/mL. In addition, binding in assay [3] was characterised by a dissociation constant (Kd) of 18.5 nM.

B6: PDL1-1v11 (VHH)
VHH: QVQLQESGGGLVKPGGSLRLSCAASGFTVSNSAVSWARQAPGKGLEWVSLIDSNRNTVYAQSVRGRFTISRDNAKNSVYLQMNSLRAEDTAVYYCAKGIWGSTLWGQGTTVTVSS
notes: Humanized PDL1-1, His-tagged
For B6, a half-maximal response in assay [2] (EC50) required 0.02 µg/mL. Besides, the IC50 is 2.48 µg/mL in assay [4] and 31.1 µg/mL in assay [6]. The molecule further yielded an equilibrium dissociation constant (Kd) in assay [3] of 5.86 nM.

B7: PDL1-1v8 (VHH)
VHH: EVQLLESGGGLVQPGGSLRLSCAASGFTVSNSAVSWARQAPGKGLEWVSLIDSNRNTVYAQSVRGRFTISRDNSKNTVYLQMNSLRAEDTAVYYCAKGIWGSTLTGQGTTVTVSS
notes: Humanized PDL1-1, His-tagged
In the case of B7, the response in assay [7] was half-maximal at 0.0108 µg/mL (EC50). The IC50 was 0.458 µg/mL in assay [4] and 5.58 µg/mL in assay [6]. The molecule also showed a Kd in assay [3] of 5.9 nM.

B8: PDL1-1v17 (VHH)
VHH: QVQLVESGGGLVKPGGSLRLSCAASGFTVSNSAVSWARQAPGKGLEWVSLIDSNRNTVYAQSVRGRFTISRDNAKNSVYLQMNSLRPEDTAVYYCAKGIWGSTLWGQGTTVTVSS
notes: Humanized PDL1-1, His-tagged
In assay [5], B8 showed an EC50 of 0.0664 µg/mL. This molecule registered a Kd in assay [3] of 10.2 nM.

B9: PDL1-1v12 (VHH)
VHH: QVQLVESGGGLVQPGGSLRLSCAASGFTVSNSAVSWARQAPGKGLEWVSLIDSNRNTVYAQSVRGRFTISRDNAKNSVYLQMNSLRAEDTAVYYCAKGIWGSTLWGQGTTVTVSS
notes: Humanized PDL1-1, His-tagged
In the case of B9, the half-maximal effective concentration (EC50) in assay [5] was determined as 1.24 µg/mL. The molecule further had a Kd in assay [3] of 389 nM.

B10: PDL1-1v6 (VHH)
VHH: EVQLLESGGGLVQPGGSLRLSCAASGFTVSNSAVSWARQAPGKGLEWVSLIDSNRNTVYAQSVRGRFTISRDNSKNTVYLQMNSLKAEDTAVYYCAKGIWGSTLWGQGTTVTVSS
notes: Humanized PDL1-1, His-tagged
Molecule B10 had an EC50 in assay [7] of 0.0505 µg/mL. The Kd in assay [3] is 22.1 nM.

B11: PDL1-1v2 (VHH)
VHH: QVQLVESGGGLVKPGGSLRLSCAASGFTVSNSAVSWARQAPGKGLEWVSLIDSNRNTVYAQSVRGRFTISRDNAKNSVYLQMNSLRAEDTAVYYCAKGIWGSTLWGQGTTVTVSS
notes: Humanized PDL1-1, His-tagged
For the molecule B11, the figures for the EC50 in assay [2] and in assay [5] were 0.0423 µg/mL and 0.0591 µg/mL, respectively. In assay [3], this molecule showed a Kd of 14.3 nM.

B12: PDL1-1v16 (VHH)
VHH: QVQLVESGGGLVKPGGSLRLSCAASGFTVSNSAVSWARQAPGKGLEWVSLIDSNRNTVYAQSVRGRFTISRDNAKNSVYLQMNSLKAEDTAVYYCAKGIWGSTLWGQGTTVTVSS
notes: Humanized PDL1-1, His-tagged
Consider B12, for which, in assay [2], the EC50 was 0.0629 µg/mL. This molecule returned a Kd in assay [3] of 14.3 nM.

B13: PDL1-1v19 (VHH)
VHH: QVQLVESGGGLVKPGGSLRLSCAASGFTVSNSAVSWARQAPGKGLEWVSLIDSNRNTVYAQSVRGRFTISRDNAKNSVYLQMNSLRAEDTAVYYCAKGIWGSTLWGQGTQVTVSS
notes: Humanized PDL1-1, His-tagged
With B13, the IC50 is 2.59 µg/mL in assay [4] and 18.8 µg/mL in assay [6]. Also, in assay [5], a half-maximal effect (EC50) was put at 0.0484 µg/mL. The same molecule gave a Kd in assay [3] of 9.86 nM.

B14: PDL1-1v20 (VHH)
VHH: QVQLVESGGGLVKPGGSLRLSCAASGFTVSNSAVSWARQAPGKGLEWVSLIASNRNTVYAQSVRGRFTISRDNAKNSVYLQMNSLRAEDTAVYYCAKGIWGSTLWGQGTTVTVSS
notes: Humanized PDL1-1, His-tagged
Turning to B14, a half-maximal response in assay [5] (EC50) required 0.875 µg/mL. In assay [3], this molecule came in with a Kd of 32.5 nM.

B15: PDL1-1v10 (VHH)
VHH: EVQLLESGGGLVQPGGSLRLSCAASGFTVSNSAVSWARQAPGKGLEWVSLIASNRNTVYAQSVRGRFTISRDNSKNTVYLQMNSLRAEDTAVYYCAKGIWGSTLWGQGTTVTVSS
notes: Humanized PDL1-1, His-tagged
Turning to B15, the EC50 in assay [7] was around 110 µg/mL. In assay [3], this molecule registered a Kd of 30.5 nM.

B16: PDL1-1v13 (VHH)
VHH: QVQLVESGGGLVKPGGSLTLSCAASGFTVSNSAVSWARQAPGKGLEWVSLIDSNRNTVYAQSVRGRFTISRDNAKNSVYLQMNSLRAEDTAVYYCAKGIWGSTLWGQGTTVTVSS
notes: Humanized PDL1-1, His-tagged
In assay [5], B16 displayed an EC50 of 0.0461 µg/mL. In assay [3], this molecule yielded a Kd of 11.4 nM.

B17: PDL1-1v14 (VHH)
VHH: QVQLVESGGGLVKPGGSLRLSCAASGFTVSNSAVSWARQAPGKGLEWVSLIDSNRNTVYAQSVRGRFTISRDNVKNSVYLQMNSLRAEDTAVYYCAKGIWGSTLWGQGTTVTVSS
notes: Humanized PDL1-1, His-tagged
In turn, B17 showed an EC50 in assay [2] of 0.0342 µg/mL. Further, the IC50 stood at 4.58 µg/mL in assay [4] and 37.1 µg/mL in assay [6]. Further, binding in assay [3] was put at a Kd of 7.37 nM.

B18: Fusion 2 (other, murine)
chain 1: RVIPVSGPARCLSQSRNLLKTTDDMVKTAREKLKHYSCTAEDIDHEDITRDQTSTLKTCLPLELHKNESCLATRETSSTTRGSCLPPQKTSLMMTLCLGSIYEDLKMYQTEFQAINAALQNHNHQQIILDKGMLVAIDELMQSLNHNGETLRQKPPVGEADPYRVKMKLCILLHAFSTRVVTINRVMGYLSSAHHHHHH
chain 2: MWELEKDVYVVEVDWTPDAPGETVNLTCDTPEEDDITWTSDQRHGVIGSGKTLTITVKEFLDAGQYTCHKGGETLSHSHLLLHKKENGIWSTEILKNFKNKTFLKCEAPNYSGRFTCSWLVQRNMDLKFNIKSSSSSPDSRAVTCGMASLSAEKVTLDQRDYEKYSVSCQEDVTCPTAEETLPIELALEARQQNKYENYSTSFFIRDIIKPDPPKNLQMKPLKNSQVEVSWEYPDSWSTPHSYFSLKFFVRIQRKKEKMKETEEGCNQKGAFLVEKTSTEVQCKGGNVCVQAQDRYYNSSCSKWACVPCRVRSGGGGSGGGGSGGGGSQVQLQESGGGLVQPGGSLTLSCAASGFTVSNSAVSWARQAPGKGLEWVSLIDSNRNTVYAQSVRGRFTISRDNVKNTVYLQMNSLKPEDTAVYYCAKGIWGSTLTGQGTQVTVSS
notes: PDL1-1 nanobody fused with murine IL-12; two plasmids co-transfected 1:1; also called mP35-6his + mP40-P1
In the case of B18, the concentration giving a half-maximal response (EC50) in assay [1] is 4.1 µg/mL and 54.3 nM.
